Reference: publication PMC8153620, “A Novel, Easy Assay Method for Human Cysteine Sulfinic Acid Decarboxylase” (Life, 2021)

T1: human cysteine sulfinic acid decarboxylase (CSAD) (Homo sapiens, UniProt Q9Y600)
T1 construct: His6 and TEV site), tag kept (cleavage not mentioned); plasmid pNIC28-Bsa4; E. coli Rosetta(DE3); homodimer in crystal (PDB 2jis, solved by SGC)
T1 sequence (Q9Y600 1-493): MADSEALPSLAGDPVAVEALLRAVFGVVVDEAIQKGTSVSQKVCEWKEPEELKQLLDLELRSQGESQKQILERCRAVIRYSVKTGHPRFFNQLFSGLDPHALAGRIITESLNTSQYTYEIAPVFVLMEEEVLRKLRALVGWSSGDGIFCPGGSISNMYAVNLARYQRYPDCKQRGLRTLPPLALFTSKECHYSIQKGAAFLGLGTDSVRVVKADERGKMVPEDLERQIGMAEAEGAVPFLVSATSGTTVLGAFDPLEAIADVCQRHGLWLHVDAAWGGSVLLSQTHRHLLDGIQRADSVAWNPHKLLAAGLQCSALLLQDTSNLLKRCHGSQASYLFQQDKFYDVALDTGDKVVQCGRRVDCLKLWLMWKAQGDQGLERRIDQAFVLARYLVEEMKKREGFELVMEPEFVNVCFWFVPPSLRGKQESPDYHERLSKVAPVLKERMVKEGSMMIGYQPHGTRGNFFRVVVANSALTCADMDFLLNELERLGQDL


What was measured:
[1] = biological target: T1, human cysteine sulfinic acid decarboxylase (CSAD); assay: restoration of catalytic activity by equimolar PLP; absorption spectrum after dialysis; format: biochemical; settings: covalent (Schiff base to Lys305 in PDB 2jis, not solved here); spectrum in 20 mM NaHEPES pH 7.5, 300 mM NaCl, 0.2 mM DTT, 5% glycerol
[2] = substrate: N[C@@H](CS(=O)O)C(=O)O; assay: purified protein; format: biochemical, Homo sapiens; settings: 20 mM potassium phosphate pH 7.2, 0.2 mM DTT, 0.1 mM EDTA, 0.06 mM PLP, about 20 °C (room temperature), 0.33 μM CSAD, CSA 0.06–1 mM

| Molecule | restoration of catalytic activity by equimolar PLP; absorption spectrum after di [1] | Km [2] | kcat [2] |
| --- | --- | --- | --- |
| Cc1ncc(COP(=O)(O)O)c(C=O)c1O [PLP, pyridoxal-5′-phosphate] | addition of exogenous PLP—in equimolar concentration with respect to the protein—restored the holo-form |  |  |
| human cysteine sulfinic acid decarboxylase (CSAD) (Homo sapiens) (protein, His6 and TEV site), tag kept (cleavage not mentioned); plasmid pNIC28-Bsa4; E. coli Rosetta(DE3); homodimer in crystal (PDB 2jis, solved by SGC)) MADSEALPSLAGDPVAVEALLRAVFGVVVDEAIQKGTSVSQKVCEWKEPEELKQLLDLELRSQGESQKQILERCRAVIRYSVKTGHPRFFNQLFSGLDPHALAGRIITESLNTSQYTYEIAPVFVLMEEEVLRKLRALVGWSSGDGIFCPGGSISNMYAVNLARYQRYPDCKQRGLRTLPPLALFTSKECHYSIQKGAAFLGLGTDSVRVVKADERGKMVPEDLERQIGMAEAEGAVPFLVSATSGTTVLGAFDPLEAIADVCQRHGLWLHVDAAWGGSVLLSQTHRHLLDGIQRADSVAWNPHKLLAAGLQCSALLLQDTSNLLKRCHGSQASYLFQQDKFYDVALDTGDKVVQCGRRVDCLKLWLMWKAQGDQGLERRIDQAFVLARYLVEEMKKREGFELVMEPEFVNVCFWFVPPSLRGKQESPDYHERLSKVAPVLKERMVKEGSMMIGYQPHGTRGNFFRVVVANSALTCADMDFLLNELERLGQDL |  | 200 ± 20 µM | 5.6 ± 0.2 s⁻¹ |
